According to patent publication US20110190477A1 (G2 INFLAMMATION, published 2011):
No end group written: not given here. *: point of attachment. Biotin = O=C1N[C@H]2[C@H](CS[C@H]2CCCCC(=O)*)N1

T1: human C5a receptor (human, UniProt P21730 1-350)
T1 chain: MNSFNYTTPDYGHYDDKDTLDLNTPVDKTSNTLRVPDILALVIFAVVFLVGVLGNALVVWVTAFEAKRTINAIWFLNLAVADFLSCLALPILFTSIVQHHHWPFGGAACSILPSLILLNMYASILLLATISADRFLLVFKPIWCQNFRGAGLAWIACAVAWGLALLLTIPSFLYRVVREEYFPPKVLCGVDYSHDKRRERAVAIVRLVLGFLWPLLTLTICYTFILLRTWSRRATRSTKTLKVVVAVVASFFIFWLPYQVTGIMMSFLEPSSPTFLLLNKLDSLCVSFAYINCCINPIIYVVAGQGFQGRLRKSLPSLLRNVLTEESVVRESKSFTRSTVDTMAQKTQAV

T2: peptide 8 (12 mer from the 2nd extracellular loop of human C5aR) (human)
T2 construct: worked out from 22 12 mers offset by one over 173-205; also called peptide no
T2 peptide: Biotin-SGSGEYFPPKVLCGVD

T3: peptide 10 (12 mer from the 2nd extracellular loop of human C5aR) (human)
T3 construct: worked out from 22 12 mers offset by one over 173-205; also called peptide no; 10
T3 peptide: Biotin-SGSGFPPKVLCGVDYS

T4: peptide 13 (12 mer from the 2nd extracellular loop of human C5aR) (human)
T4 construct: worked out from 22 12 mers offset by one over 173-205; also called peptide no; 13
T4 peptide: Biotin-SGSGKVLCGVDYSHDK

T5: peptide 14 (12 mer from the 2nd extracellular loop of human C5aR) (human)
T5 construct: worked out from 22 12 mers offset by one over 173-205; also called peptide no; 14
T5 peptide: Biotin-SGSGVLCGVDYSHDKR

T6: peptide 17 (12 mer from the 2nd extracellular loop of human C5aR) (human)
T6 construct: worked out from 22 12 mers offset by one over 173-205; also called peptide no; 17
T6 peptide: Biotin-SGSGGVDYSHDKRRER

T7: peptide 22 (12 mer from the 2nd extracellular loop of human C5aR) (human)
T7 construct: worked out from 22 12 mers offset by one over 173-205; also called peptide no; 22
T7 peptide: Biotin-SGSGHDKRRERAVAIV


Key:
human C5a receptor [1] = target: T1, human C5a receptor; test: cell-based or functional assay
human C5a receptor [2] = target: T1, human C5a receptor; test: 125I-C5a displacement, human neutrophils
Method: (§1) The ability of humanized Abs to inhibit ¹²⁵I-labelled C5a binding to L1.2 cells transfected with hC5aR gene or human neutrophils was tested as described below. Recombinant human C5a was obtained from Sigma Chemical Co. (St. Louis, Mo.). ¹²⁵I-Bolton-Hunter-labelled complement C5a was purchased from NEN-Dupont (Boston, Mass.), with a specific activity of 2200 Ci/mM. Briefly, L1.2/hC5aR stable transfectants were grown for several days prior to an experiment then treated overnight with 5 mM butyric acid to stimulate hC5aR expression prior to the binding assay. Human neutrophils were purified from venous blood collected from healthy volunteers. Neutrophils were separated from other leukocytes by percoll density centrifugation followed by a red blood cell lysis step. Both cell types were washed once in PBS and resuspended in binding buffer (50 mM Hepes, pH 7.5, 1 mM CaCl₂, 5 mM MgCl₂, 0.5% BSA) at a concentration of 1×10⁷/ml. Aliquots of 40 μl (4×10⁵ cells) were dispensed into 96 well microtitre plates, followed by the addition of cold competitor (antibody or human C5a). Cells and cold competitor were incubated for 15 min at room temperature before-radiolabelled C5a was added to a final concentration of 0.4 nM. The final reaction volume was 120 μl. After 60 min incubation at room temperature, the cells were washed three times with 150 μl of binding buffer containing 0.15 M NaCl. Cell pellets were then counted on a TopCount Scintillation Counter (Packard). Samples were assayed in triplicate at each of 6-8 concentrations. Each antibody was tested in at least 3 separate assays. The number of counts in each sample was expressed as a percentage of the maximum ¹²⁵I-C5a binding observed in wells with no added cold competitor after subtraction of background.
(§2) Results of this analysis (the displacement curves) for each of the humanized antibodies compared to the mouse antibody 7F3 in human neutrophils and L1.2/hC5aR transfectants are given in FIGS. 11 and 12 respectively. […] These values were obtained using Graphpad Prism software fitting the data to the non-linear equation for one site competition.

[3] = target: T2, peptide 8 (12 mer from the 2nd …); test: peptide ELISA, biotin peptide on streptavidin plate
Source text: (§3) A set of 22 overlapping peptides (12 mers), each offset by 1 residue from the next, spanning the second extracellular loop (3rd extracellular domain) of human C5aR was synthesised (Mimotopes, Melbourne). Each peptide was made with a biotin group and 4-amino acid linker (SGSG) at its N-terminus. One peptide synthesised, no. 23, was a 33 mer, representing the full length of the 2nd extracellular loop of hC5aR (residues 173-205 from SEQ ID NO:37), also had biotin-SGSG at the N-terminus.
(§4) The experiment was conducted by binding the peptides to a 384-well streptavidin-coated plate then incubating the antibodies with the peptides and detecting bound antibody with an anti-mouse IgG conjugated to horse radish peroxidase (HRP) as follows. Each peptide was dissolved in 200 μl of 60% DMSO to a concentration of 10 mg/ml. Peptides were further diluted 1:1000 to a working strength of 10 μg/ml with PBS/Tween 20/azide solution (0.1% w/v sodium azide in PBS/0.05% Tween 20).
(§5) A 384 well streptavidin-coated plate (Nunc) was blocked with 20 μl of blocking buffer (1% w/v BSA in PBS) per well. The plate was washed 4 times with PBS/Tween20 buffer (0.1% v/v Tween 20 in PBS). 20 μl of diluted peptide solution was transferred into a well and the plate incubated for 1 hour at room temperature. After washing the plate 4 times (as above) 20 μl antibody (0.5, 1, 1.25, 2.5 or 5 μg/ml) was added to the well and the plate was incubated for 1 hour at 20° C. The plate was washed 4 times as above then 20 μlHRP-conjugated anti-mouse IgG (1:5000 dilution in PBS/Tween 20) was added to each well. After a 1 hour incubation at room temperature the plate was washed 3 times (as above) then twice with PBS to remove traces of Tween. The presence of peroxidase was detected by adding 20 μl of freshly prepared TMB Substrate reagent (BD Opt EIA) to each well and incubating at room temperature for 20 min. Finally the plate was read at 650 nm/450 nm.

[4] = target: T3, peptide 10 (12 mer from the 2nd …); test: as above
Source text: as §3, §4, §5

[5] = target: T4, peptide 13 (12 mer from the 2nd …); test: as above
Source text: as §3, §4, §5

[6] = target: T5, peptide 14 (12 mer from the 2nd …); test: as above
Source text: as §3, §4, §5

[7] = target: T6, peptide 17 (12 mer from the 2nd …); test: as above
Source text: as §3, §4, §5

[8] = target: T7, peptide 22 (12 mer from the 2nd …); test: as above
Source text: as §3, §4, §5

human C5a receptor [9] = target: T1, human C5a receptor; test: 125I-C5a displacement, L1.2/hC5aR transfectants
Method: as §1, §2

| Binder | IC50, C5a-induced migration of hC5aR/L1.2 cells (human C5a receptor [1]) [µg/mL] | antibody concentration that completely inhibited hC5aR/L1.2 transfectant migration (human C5a receptor [1]) [µg/mL] | blocking of human neutrophil migration towards C5a at 5 µg/ml antibody (human C5a receptor [1]) [%] | EC50 (human C5a receptor [2]) [nM] | binding result [3] | binding result [4] | binding result [5] | binding result [6] | binding result [7] | binding result [8] | EC50 (human C5a receptor [9]) [nM] | EC50 for inhibition of C5a-induced human neutrophil migration (human C5a receptor [1]) [µg/mL] | IC50, prevention of C5a-induced CD11b up-regulation on neutrophils in whole human blood (100 nM C5a) (human C5a receptor [1]) [µg/mL] | IC50, prevention of C5a-induced loss of CD62L on neutrophils in whole human blood (100 nM C5a) (human C5a receptor [1]) [µg/mL] | antibody concentration that completely blocked migration of human neutrophils induced by 10 nM C5a (human C5a receptor [1]) [µg/mL] |
| --- | --- | --- | --- | --- | --- | --- | --- | --- | --- | --- | --- | --- | --- | --- | --- |
| humanized anti-C5aR antibody hAb-J (antibody, human IgG4 S228P, kappa, also called antibody J) light: DVVMTQSPLSLPVTLGEPASISCRSSQSLVHSNGNTYLHWYLQKPGQSPQLLIYKVSNRFSGVPDRFSGSGSGTDFTLKISRVEAEDVGVYFCSQSTLVPLTFGQGTKLEIKTVAAPSVFIFPPSDEQLKSGTASVVCLLNNFYPREAKVQWKVDNALQSGNSQESVTEQDSKDSTYSLSSTLTLSKADYEKHKVYACEVTHQGLSSPVTKSFNRGEC heavy: not shown | 0.6 | 5 | 82 | 4.11 | no binding | no binding | no binding | no binding | no binding | no binding | 0.93 | – | – | – | – |
| humanized anti-C5aR antibody hAb-Q (antibody, human IgG4 S228P, kappa, IgG4 with the Ser228Pro mutation; also called antibody Q; anti-C5aR ab) light: DVVMTQSPLSLPVTLGEPASISCRSSQSLVHSNGNTYLHWYLQKPGQSPQLLIYKVSNRFSGVPDRFSGSGSGTDFTLKISRVEAEDVGVYFCSQSTLVPLTFGQGTKLEIKRTVAAPSVFIFPPSDEQLKSGTASVVCLLNNFYPREAKVQWKVDNALQSGNSQESVTEQDSKDSTYSLSSTLTLSKADYEKHKVYACEVTHQGLSSPVTKSFNRGEC heavy: not shown | 0.7 | 5 | – | 3.5 | no binding | no binding | no binding | no binding | no binding | no binding | 0.86 | 0.03 | ~10.7 | ~5.4 | – |
| mouse anti-C5aR monoclonal antibody 7F3 (antibody, V domains shown, Mouse monoclonal from hybridoma ECACC 00110609; also called m7F3; mouse 7F3) VH: QVQLQQSGPELVKPGASVKISCKASGYAFSNSWMNWVKQRPGKGLEWIGRIYPGDGDTKYNGKFKGKATLTADKSSSTAYMQLSSLTSEDSAVYFCARFLLISTVTAVDYWGQGTTLTVSS VL: DVVMTQSPLSLPVSLGNQASISCRSSQSLVHSNGNTYLHWYLQKPGQSPKLLIYKVSNRFSGVPDRFSGSGSGTDFSLKISRVEAEDLGVYFCSQSTLVPLTFGAGTKLELK | 0.5 | 5 | 97 | 0.54 | no binding | no binding | no binding | no binding | no binding | no binding | 0.51 | – | – | – | 10 |
